Test results from publication doi:10.1101/2023.10.06.561273, “Bacterial cell surface nanoenvironment requires a specialized chaperone to activate a peptidoglycan biosynthetic enzyme” (bioRxiv, 2023).

Target: the molecule itself
Assay: SEC; renatured SpoVK-His6 on Superdex 200 Increase in renaturation buffer (500 mM L-arginine, 100 mM NaCl, pH 7.5), 0.75 ml/min; final peak

B1: SpoVK-His6 (enzyme, B. subtilis, UniProt P27643 1-322, looked up)
chain: MLERAVTYKNNGQINIILNGQKQVLTNAEAEAEYQAALQKNEAKHGILKEIEKEMSALVGMEEMKRNIKEIYAWIFVNQKRAEQGLKVGKQALHMMFKGNPGTGKTTVARLIGKLFFEMNVLSKGHLIEAERADLVGEYIGHTAQKTRDLIKKSLGGILFIDEAYSLARGGEKDFGKEAIDTLVKHMEDKQHEFILILAGYSREMDHFLSLNPGLQSRFPISIDFPDYSVTQLMEIAKRMIDEREYQLSQEAEWKLKDYLMTVKSTTSPIKFSNGRFVRNVIEKSIRAQAMRLLMGDQYLKSDLMTIKSQDLSIKEEASGSA
notes: SpoVK, AAA+ ATPase of Bacillus subtilis; also called purified SpoVK
Q: With B1 as the protein, how does the “stoichiometry N” value read?
A: ~3
